Reference: patent US20170298146A1 (MODIQUEST B V, published 2017)
Non-standard residues stand in square brackets, D forms with d. No end group written: not given here. Cit = NC(=O)NCCC[C@H](N)C(=O)O

Experiments:
[1] = target: T1, huPAD2 deiminated human recombinant histone H2A (human); test: ELISA, 0.000128 ug/well
T1 construct: also called H2A/p2
Method: (§1) CFC-1 and CFC-0 were coated at the same concentration and served as positive and negative controls, respectively, for specific anti-citrulline reactivity and as coating controls. Non-coated wells were used to test for aspecific binding of the antibodies. […] Detection of bound anti-citrulline antibodies was performed by incubating the wells with rabbit-anti-human-HRP (1:2000) for one hour at RT followed by incubation with TMB substrate. The resulting OD (y-axis) is a measure for antibody binding. H1=recombinant histone 1; H1/p2=huPAD2 recombinant histone 1; H1/p4=huPAD4 recombinant histone 1 and so forth (x-axis).

[2] = target: T2, human recombinant histone H2B (human); test: ELISA, 0.000128 ug/well
T2 construct: Non-deiminated
Method: as §1

[3] = target: human recombinant histone H4 (human, UniProt P62805 2-103); test: ELISA, 0.000128 ug/well
Method: as §1

[4] = target: T3, huPAD2 deiminated human recombinant histone H2B (human); test: ELISA, 0.000128 ug/well
T3 construct: also called H2B/p2
Method: as §1

[5] = target: T4, huPAD4 deiminated human recombinant histone H2B (human); test: ELISA, 0.000128 ug/well
T4 construct: also called H2B/p4
Method: as §1

[6] = target: T5, huPAD4 deiminated human recombinant histone H3 (human); test: ELISA, 0.000128 ug/well
T5 construct: also called H3/p4
Method: as §1

[7] = target: T6, huPAD2 deiminated human recombinant histone H3 (human); test: ELISA, 0.000128 ug/well
T6 construct: also called H3/p2
Method: as §1

[8] = target: T7, Histone 2A citrulline-containing peptide 9 (human, also: biotin label); test: peptide ELISA, 0.016 ug/well
T7 peptide: DNKKT[Cit]IIPRHL
Method: as §1, with “Biotin and citrulline-containing peptides derived from histone 2A were immobilized on NEUTRAVIDIN®-coated 96-well ELISA plates (0.3 μg/well). CFC-1” for “CFC-1”, “controls respectively” for “controls, respectively,”, “binding.” for “binding. H1=recombinant histone 1; H1/p2=huPAD2 recombinant histone 1; H1/p4=huPAD4 recombinant histone 1 and so forth (x-axis).”
(§2) Ninety-six-well ELISA plates were coated with NEUTRAVIDIN® (0.1 μg/well) by overnight incubation at 4° C. Wells were washed five times with PBS-TWEEN®-20 (PBS-T) and blocked by a one-hour incubation with PBS-T+1% Bovine serum albumin (BSA) at room temperature (RT). After five more washes with PBS-T, wells were incubated for one hour at RT with histone-derived citrulline and biotin-containing peptides (0.3 μg/well). […] Wells were washed five times with PBS-T and incubated with rabbit-anti-human-HRP (1:2000) for one hour at RT followed by five washes with PBS-T and three wash steps with PBS. Wells were incubated for five minutes with TMB substrate before stopping the reaction with 2 M H₂SO₄. Optical density was measured by 450 nm and is a measure for the affinity of the antibodies used.

[9] = target: T8, Histone 2A citrulline-containing peptide 12 (human, also: biotin label); test: peptide ELISA, 0.016 ug/well
T8 peptide: NKLLG[Cit]VTIAQG
Method: as §1, with “Biotin and citrulline-containing peptides derived from histone 2A were immobilized on NEUTRAVIDIN®-coated 96-well ELISA plates (0.3 μg/well). CFC-1” for “CFC-1”, “controls respectively” for “controls, respectively,”, “binding.” for “binding. H1=recombinant histone 1; H1/p2=huPAD2 recombinant histone 1; H1/p4=huPAD4 recombinant histone 1 and so forth (x-axis).”
as §2

[10] = target: T9, Histone 2A citrulline-containing peptide 11 (human, also: biotin label); test: peptide ELISA, 0.016 ug/well
T9 peptide: LQLAI[Cit]NDEELN
Method: as §1, with “Biotin and citrulline-containing peptides derived from histone 2A were immobilized on NEUTRAVIDIN®-coated 96-well ELISA plates (0.3 μg/well). CFC-1” for “CFC-1”, “controls respectively” for “controls, respectively,”, “binding.” for “binding. H1=recombinant histone 1; H1/p2=huPAD2 recombinant histone 1; H1/p4=huPAD4 recombinant histone 1 and so forth (x-axis).”
as §2

[11] = target: T10, Histone 2A citrulline-containing peptide 8 (human, also: biotin label); test: peptide ELISA, 0.016 ug/well
T10 peptide: AGNAA[Cit]DNKKTR
Method: as §1, with “Biotin and citrulline-containing peptides derived from histone 2A were immobilized on NEUTRAVIDIN®-coated 96-well ELISA plates (0.3 μg/well). CFC-1” for “CFC-1”, “controls respectively” for “controls, respectively,”, “binding.” for “binding. H1=recombinant histone 1; H1/p2=huPAD2 recombinant histone 1; H1/p4=huPAD4 recombinant histone 1 and so forth (x-axis).”
as §2

[12] = target: T11, Histone 2A citrulline-containing peptide 6 (human, also: biotin label); test: peptide ELISA, 0.016 ug/well
T11 peptide: VHRLL[Cit]KGNYSE
Method: as §1, with “Biotin and citrulline-containing peptides derived from histone 2A were immobilized on NEUTRAVIDIN®-coated 96-well ELISA plates (0.3 μg/well). CFC-1” for “CFC-1”, “controls respectively” for “controls, respectively,”, “binding.” for “binding. H1=recombinant histone 1; H1/p2=huPAD2 recombinant histone 1; H1/p4=huPAD4 recombinant histone 1 and so forth (x-axis).”
as §2

[13] = target: T12, Histone 2A citrulline-containing peptide 2 (human, also: biotin label); test: peptide ELISA, 0.016 ug/well
T12 peptide: AKAKS[Cit]SSRAGL
Method: as §1, with “Biotin and citrulline-containing peptides derived from histone 2A were immobilized on NEUTRAVIDIN®-coated 96-well ELISA plates (0.3 μg/well). CFC-1” for “CFC-1”, “controls respectively” for “controls, respectively,”, “binding.” for “binding. H1=recombinant histone 1; H1/p2=huPAD2 recombinant histone 1; H1/p4=huPAD4 recombinant histone 1 and so forth (x-axis).”
as §2

[14] = target: T13, Histone 2A citrulline-containing peptide 4 (human, also: biotin label); test: peptide ELISA, 0.016 ug/well
T13 peptide: QFPVG[Cit]VHRLLR
Method: as §1, with “Biotin and citrulline-containing peptides derived from histone 2A were immobilized on NEUTRAVIDIN®-coated 96-well ELISA plates (0.3 μg/well). CFC-1” for “CFC-1”, “controls respectively” for “controls, respectively,”, “binding.” for “binding. H1=recombinant histone 1; H1/p2=huPAD2 recombinant histone 1; H1/p4=huPAD4 recombinant histone 1 and so forth (x-axis).”
as §2

B1: RhmAb2.102 (antibody, human IgG1, lambda)
heavy: not shown
light: QSVLTQPPSMSAAPGQKVTISCSGSSSNIGNNYVSWYQQVPGTAPKLLIYDDNKRPSGIPGRFSGSKSATSATLGITGLQAGDEADYYCGSWDDNLSVVLFGGGTKLTVLGQPKAAPSVTLFPPSSEELQANKATLVCLISDFYPGAVTVAWKADSSPVKAGVETTTPSKQSNNKYAASSYLSLTPEQWKSHRSYSCQVTHEGSTVEKTVAPTECS
notes: Human IgG1 lambda; also called Rhm2.102
OD [1]: 0.063 OD | OD [2]: 0.052 OD | OD [3]: 0.06 OD | OD [4]: 0.051 OD | OD [5]: 0.053 OD | OD [6]: 0.06 OD | OD [7]: 0.066 OD | OD [8]: 0.064 OD | OD [9]: 0.057 OD | OD [10]: 0.069 OD | OD [11]: 0.063 OD | OD [12]: 0.075 OD | OD [13]: 0.065 OD | OD [14]: 0.084 OD
